Test results taken from patent US20170334979A1 (published 2017).

B1: cynomolgus monkey serum albumin (other)
chain: DTHKSEVAHRFKDLGEEHFKGLVLVAFSQYLQQCPFEEHVKLVNEVTEFAKTCVADESAENCDKSLHTLFGDKLCTVATLRETYGEMADCCAKQEPERNECFLQHKDDNPNLPPLVRPEVDVMCTAFHDNEATFLKKYLYEVARRHPYFYAPELLFFAARYKAAFAECCQAADKAACLLPKLDELRDEGKASSAKQRLKCASLQKFGDRAFKAWAVARLSQKFPKAEFAEVSKLVTDLTKVHTECCHGDLLECADDRADLAKYMCENQDSISSKLKECCDKPLLEKSHCLAEVENDEMPADLPSLAADYVESKDVCKNYAEAKDVFLGMFLYEYARRHPDYSVMLLLRLAKAYEATLEKCCAAADPHECYAKVFDEFQPLVEEPQNLVKQNCELFEQLGEYKFQNALLVRYTKKVPQVSTPTLVEVSRNLGKVGAKCCKLPEAKRMPCAEDYLSVVLNRLCVLHEKTPVSEKVTKCCTESLVNRRPCFSALELDEAYVPKAFNAETFTFHADMCTLSEKEKQVKKQTALVELVKHKPKATKEQLKGVMDNFAAFVEKCCKADDKEACFAEEGPKFVAASQAALA
B2: 7A (protein)
chain: EVQLVESGGGLVQPGNSLRLSCAASGFTFSKFGMSWVRQAPGKGLEWVSSISGSGADTLYADSLKGRFTISRDNAKTTLYLQMNSLRPEDTAVYYCTIGGSLSKSSQGTLVTVSS

Legend:
Assay in all cases: purified sdAb binding
10GE = molecular target: 10GE
human serum albumin = human serum albumin (human, UniProt P02768 25-609)
mouse serum albumin = mouse serum albumin (mouse, UniProt P07724 25-608)
Chain of mouse serum albumin (P07724 25-608): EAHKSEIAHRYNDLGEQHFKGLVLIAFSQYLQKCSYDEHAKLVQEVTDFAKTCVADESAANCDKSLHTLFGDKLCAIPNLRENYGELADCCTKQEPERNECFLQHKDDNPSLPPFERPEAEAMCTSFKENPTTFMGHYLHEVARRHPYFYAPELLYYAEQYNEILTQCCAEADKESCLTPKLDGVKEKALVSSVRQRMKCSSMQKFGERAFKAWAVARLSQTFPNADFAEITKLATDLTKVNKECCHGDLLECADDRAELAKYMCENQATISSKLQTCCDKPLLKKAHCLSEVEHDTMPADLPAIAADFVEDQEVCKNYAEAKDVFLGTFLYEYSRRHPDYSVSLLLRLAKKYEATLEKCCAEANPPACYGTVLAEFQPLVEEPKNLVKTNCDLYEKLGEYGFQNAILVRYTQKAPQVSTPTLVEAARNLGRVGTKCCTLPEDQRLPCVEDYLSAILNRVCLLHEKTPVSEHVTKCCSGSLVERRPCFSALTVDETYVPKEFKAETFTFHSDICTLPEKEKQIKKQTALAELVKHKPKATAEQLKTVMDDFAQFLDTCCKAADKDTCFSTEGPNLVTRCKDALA

[1] = molecular target: B1

| Kd (10GE) | Kd (human serum albumin) | Kd (mouse serum albumin) | Kd [1] | Binder |
| --- | --- | --- | --- | --- |
| 1.6 nM |  |  |  | B1 |
|  | 1.9 nM | 12.3 nM | 1.7 nM | B2 |
